Test results reported in PMC4979064, “Crystal structure of the plant receptor-like kinase TDR in complex with the TDIF peptide” (Nature Communications, 2016).
Residue numbers refer to the chain shown, from its start. Square brackets hold non-standard residues; d marks the D form. Ends that are not written are not given here. Hyp = O=C(O)[C@@H]1C[C@@H](O)CN1; Ahx = NCCCCCC(=O)O

Tests used:
Settings in all cases: both partners purified
[1] = target: T1, lysine methylated C259A/C540S TDR mutant, extracellular domain (residues 31–631) (Arabidopsis thaliana, UniProt Q9FII5 31-631, C259A | C540S, lysine residues methylated; digested with Endo H (deglycosylated)); assay: crystal structure; TDR and TDIF mixed at a molar ratio of 1:1.5, vapour diffusion at 20 °C, 4 M sodium nitrate, 0.1 M sodium acetate pH 4.8, 200 mM ammonium sulfate; 3.0 Å, molecular replacement
T1 construct: TDR/PXY, Arabidopsis thaliana, extracellular LRR domain, residues 31-631, with C259A/C540S; also called lysine methylated C259A/C540S mutant; methylated TDR protein; not shown: 10xHis (after an HRV3C protease site), C-terminal, cleaved
T1 sequence (looked up): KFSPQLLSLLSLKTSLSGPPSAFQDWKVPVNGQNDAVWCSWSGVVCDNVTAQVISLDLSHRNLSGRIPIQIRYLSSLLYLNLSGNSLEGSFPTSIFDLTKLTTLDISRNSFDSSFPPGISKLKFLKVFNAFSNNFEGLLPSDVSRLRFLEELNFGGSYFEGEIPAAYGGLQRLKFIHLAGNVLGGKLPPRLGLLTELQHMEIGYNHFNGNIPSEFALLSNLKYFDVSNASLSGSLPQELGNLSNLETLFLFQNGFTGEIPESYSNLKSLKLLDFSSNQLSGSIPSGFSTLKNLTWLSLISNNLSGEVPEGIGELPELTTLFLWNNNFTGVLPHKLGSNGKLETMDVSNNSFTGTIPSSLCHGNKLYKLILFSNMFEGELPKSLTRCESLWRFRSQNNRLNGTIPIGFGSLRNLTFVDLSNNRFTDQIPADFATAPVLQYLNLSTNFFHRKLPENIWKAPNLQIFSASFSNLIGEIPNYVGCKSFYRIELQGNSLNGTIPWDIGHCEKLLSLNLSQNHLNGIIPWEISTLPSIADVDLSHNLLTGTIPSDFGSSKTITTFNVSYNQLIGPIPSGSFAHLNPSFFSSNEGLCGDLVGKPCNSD

[2] = target: T2, extracellular domain (residues 31–631) of TDR from A. thaliana, wild type (Arabidopsis thaliana, UniProt Q9FII5 31-631); assay: pull-down; biotinylated TDIF (2 ug) held on Dynabeads M-280 Streptavidin; purified TDR protein added with 0.1 mg/ml BSA, 4 °C, 2 h; wash buffer 20 mM Tris-HCl pH 7.5, 150 mM NaCl; bound protein eluted in SDS sample buffer, SDS-PAGE
T2 construct: TDR/PXY (TDIF receptor/phloem intercalated with xylem), LRR receptor-like kinase, Arabidopsis thaliana, extracellular LRR domain, residues 31-631; The purification told in the methods cleaves the His tag with HRV3C protease; also called wild-type TDR; TDIF receptor; source: Sf9 insect cells (baculovirus), secreted into the culture supernatant, purified
T2 sequence (looked up): T1 sequence (looked up) with A229C, S510C

[3] = target: T3, C259A/C540S TDR mutant, extracellular domain (residues 31–631), as in the pull-down of Fig. 2e (Arabidopsis thaliana, UniProt Q9FII5 31-631, C259A | C540S); assay: as above
T3 construct: TDR/PXY, Arabidopsis thaliana, extracellular LRR domain, residues 31-631, with C259A/C540S; it may be the same preparation as m2; also called C259A/C540S mutant; TDR C259A/C540S mutant; source: Sf9 insect cells (baculovirus), purified
T3 sequence (looked up): T1 sequence (looked up)

[4] = target: T4, TDR F161A mutant (in the C259A/C540S extracellular domain, residues 31–631) (Arabidopsis thaliana, UniProt Q9FII5 31-631, C259A | C540S | F161A); assay: as above
T4 construct: TDR/PXY, Arabidopsis thaliana, extracellular LRR domain, residues 31-631, C259A/C540S background with F161A; source: Sf9 insect cells (baculovirus), purified (Ni Sepharose excel)
T4 sequence (looked up): T1 sequence (looked up) with F131A

[5] = target: T5, TDR R423A mutant (in the C259A/C540S extracellular domain, residues 31–631) (Arabidopsis thaliana, UniProt Q9FII5 31-631, C259A | C540S | R423A); assay: as above
T5 construct: TDR/PXY, Arabidopsis thaliana, extracellular LRR domain, residues 31-631, C259A/C540S background with R423A; source: Sf9 insect cells (baculovirus), purified (Ni Sepharose excel)
T5 sequence (looked up): T1 sequence (looked up) with R393A

[6] = target: T6, TDR R421A mutant (in the C259A/C540S extracellular domain, residues 31–631) (Arabidopsis thaliana, UniProt Q9FII5 31-631, C259A | C540S | R421A); assay: as above
T6 construct: TDR/PXY, Arabidopsis thaliana, extracellular LRR domain, residues 31-631, C259A/C540S background with R421A; source: Sf9 insect cells (baculovirus), purified (Ni Sepharose excel)
T6 sequence (looked up): T1 sequence (looked up) with R391A

[7] = target: T1, lysine methylated C259A/C540S TDR …; assay: as above
[8] = target: T7, TDR S162A mutant (in the C259A/C540S extracellular domain, residues 31–631) (Arabidopsis thaliana, UniProt Q9FII5 31-631, C259A | C540S | S162A); assay: as above
T7 construct: TDR/PXY, Arabidopsis thaliana, extracellular LRR domain, residues 31-631, C259A/C540S background with S162A; source: Sf9 insect cells (baculovirus), purified (Ni Sepharose excel)
T7 sequence (looked up): T1 sequence (looked up) with S132A

Measured: binding result

B1: Tracheary element differentiation factor (TDIF) peptide, HEV(Hyp)SG(Hyp)NPISN (peptide)
peptide: HEV[Hyp]SG[Hyp]NPISN
notes: TDIF, 12-residue CLE family peptide with two hydroxyprolines (written P at 4 and 7), encoded by the CLE41 and CLE44 genes in Arabidopsis; the processed peptide from the C-terminus of the precursor; The same peptide is also encoded by CLE44; also called synthesized TDIF peptide; source: synthetic peptide (Eurofins Genomics)
binds: [1]

B2: biotinylated TDIF peptide, HEV(Hyp)SG(Hyp)NPISN-GSGS-(Ahx)-Biotin (peptide)
peptide: HEV[Hyp]SG[Hyp]NPISNGSGS-{Ahx-biotin}
notes: TDIF, 12-residue CLE family peptide with two hydroxyprolines (written P at 4 and 7), encoded by the CLE41 and CLE44 genes in Arabidopsis; linker before (Ahx)-Biotin; also called biotinylated TDIF peptides; source: synthetic peptide (Eurofins Genomics); not shown: Biotin, C-terminal, kept
binds: [2] | [3] | [4] | [5] | [6] | [7] | [8]
